Reference: patent US20230158141A1 (YAFEI SHANGHAI BIOLOG MEDICINE SCIENCE AND TECHNOLOGY, published 2023)
Positions count from the first letter of the chain named. Numbers in names are those of the source. Read-outs that look alike come from different tables or passages of the source. Blank lines part the entries; values can stand above or below the binder they belong to.

Tests used:
PD-1 [1] = target: T1, PD-1 (UniProt Q15116 25-167, limits assumed); test: ELISA, conjugate vs WT antibody
PD-1 [2] = target: T1, PD-1; test: ELISA, conjugate vs WT antibody; remark: listed apart in the source
CTLA-4 [3] = target: T2, CTLA-4 (UniProt P16410 36-162, limits assumed); test: ELISA, OD mutant/OD WT; B=70-90%
CTLA-4 [4] = target: T2, CTLA-4; test: ELISA, conjugate vs WT antibody

T2 sequence (P16410 36-162 limits assumed): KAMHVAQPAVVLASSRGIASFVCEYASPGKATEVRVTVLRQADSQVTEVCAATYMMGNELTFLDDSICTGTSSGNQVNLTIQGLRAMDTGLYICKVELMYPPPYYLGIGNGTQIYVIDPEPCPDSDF
T1 sequence (Q15116 25-167 limits assumed): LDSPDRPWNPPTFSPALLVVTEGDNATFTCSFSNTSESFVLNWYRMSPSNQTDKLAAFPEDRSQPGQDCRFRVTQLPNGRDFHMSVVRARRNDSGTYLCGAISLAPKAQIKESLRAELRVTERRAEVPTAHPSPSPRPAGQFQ

binding activity (% of WT) (PD-1 [1]): 95.2%
B1: anti-PD-1 antibody 1 heavy chain K63C-R4-7 (antibody, human IgG4 S228P, kappa, V domains shown)
VH: QVQLVQSGVEVKKPGASVKVSCKASGYTFTNYYMYWVRQAPGQGLEWMGGINPSNGGTNFNECFKNRVTLTTDSSTTTAYMELKSLQFDDTAVYYCARRDYRFDMGFDYWGQGTTVTVSS
VL: EIVLTQSPATLSLSPGERATLSCRASKGVSTSGYSYLHWYQQKPGQAPRLLIYLASYLESGVPARFSGSGSGTDFTLTISSLEPEDFAVYYCQHSRDLPLTFGGGTKVEIKR
modifications: R4-7 on Cys 63

binding activity (% of WT) (PD-1 [2]): 108%
B2: anti-PD-1 antibody 1 light chain G28C-R4-5 (antibody, human IgG4 S228P, kappa, V domains shown)
VH: B1 VH with C63K
VL: B1 VL with G28C
modifications: R4-5 on Cys 28

binding activity (% of WT) (PD-1 [1]): 93.9%
B3: anti-PD-1 antibody 1 heavy chain T58C-R4-1 (antibody, human IgG4 S228P, kappa, V domains shown)
VH: B1 VH with T58C, C63K
VL: B1 VL
modifications: R4-1 on Cys 58

binding activity (% of WT) (PD-1 [1]): 104%
B4: anti-PD-1 antibody 1 heavy chain S54C-R4-1 (antibody, human IgG4 S228P, kappa, V domains shown)
VH: B1 VH with S54C, C63K
VL: B1 VL
modifications: R4-1 on Cys 54

binding activity (% of WT) (PD-1 [2]): 89.4%
B5: anti-PD-1 antibody 1 light chain S60C-R4-1 (antibody, human IgG4 S228P, kappa, V domains shown)
VH: B1 VH with C63K
VL: B1 VL with S60C
modifications: R4-1 on Cys 60

binding activity (% of WT) (PD-1 [2]): 84.4%
B6: anti-PD-1 antibody 1 light chain T31C-R4-1 (antibody, human IgG4 S228P, kappa, V domains shown)
VH: B1 VH with C63K
VL: B1 VL with T31C
modifications: R4-1 on Cys 31

binding activity (% of WT) (PD-1 [2]): 86.9%
B7: anti-PD-1 antibody 1 light chain S30C-R4-1 (antibody, human IgG4 S228P, kappa, V domains shown)
VH: B1 VH with C63K
VL: B1 VL with S30C
modifications: R4-1 on Cys 30

binding activity (% of WT) (PD-1 [1]): 91.2%
B8: anti-PD-1 antibody 1 heavy chain T30C-R4-1 (antibody, human IgG4 S228P, kappa, V domains shown)
VH: B1 VH with T30C, C63K
VL: B1 VL
modifications: R4-1 on Cys 30

binding activity (% of WT) (PD-1 [2]): 88.3%
B9: anti-PD-1 antibody 1 light chain S35C-R4-1 (antibody, human IgG4 S228P, kappa, V domains shown)
VH: B1 VH with C63K
VL: B1 VL with S35C
modifications: R4-1 on Cys 35

binding activity (OD after mutation/OD wild type) (CTLA-4 [3]): 70 to 90%
B10: anti-CTLA-4 antibody heavy chain D54C (antibody, human IgG1, kappa, V domains shown)
VH: QVQLVESGGGVVQPGRSLRLSCAASGFTFSSYTMHWVRQAPGKGLEWVTFISYCGNNKYYADSVKGRFTISRDNSKNTLYLQMNSLRAEDTAIYYCARTGWLGPFDYWGQGTLVTVSS
VL: not shown

binding activity (OD after mutation/OD wild type) (CTLA-4 [3]): 70 to 90%
B11: anti-CTLA-4 antibody heavy chain D62C (antibody, human IgG1, kappa, V domains shown)
VH: B10 VH with C54D, D62C
VL: not shown

binding activity (% of WT) (CTLA-4 [4]): 93.4%
B12: anti-CTLA-4 antibody heavy chain S30C-R4-1 (antibody, human IgG1, kappa, V domains shown)
VH: B10 VH with S30C, C54D
VL: not shown
modifications: R4-1 on Cys 30

binding activity (% of WT) (CTLA-4 [4]): 110%
B13: anti-CTLA-4 antibody heavy chain S31C-R4-1 (antibody, human IgG1, kappa, V domains shown)
VH: B10 VH with S31C, C54D
VL: not shown
modifications: R4-1 on Cys 31

binding activity (OD after mutation/OD wild type) (CTLA-4 [3]): 70 to 90%
B14: anti-CTLA-4 antibody heavy chain I51C (antibody, human IgG1, kappa, V domains shown)
VH: B10 VH with I51C, C54D
VL: not shown

binding activity (% of WT) (CTLA-4 [4]): 96.2%
B15: anti-CTLA-4 antibody heavy chain K65C-R4-7 (antibody, human IgG1, kappa, V domains shown)
VH: B10 VH with C54D, K65C
VL: not shown
modifications: R4-7 on Cys 65

binding activity (OD after mutation/OD wild type) (CTLA-4 [3]): 70 to 90%
B16: anti-CTLA-4 antibody heavy chain Y32C (antibody, human IgG1, kappa, V domains shown)
VH: B10 VH with Y32C, C54D
VL: not shown

binding activity (% of WT) (CTLA-4 [4]): 89.1%
B17: anti-CTLA-4 antibody heavy chain Y59C-R4-4 (antibody, human IgG1, kappa, V domains shown)
VH: B10 VH with C54D, Y59C
VL: not shown
modifications: R4-4 on Cys 59

binding activity (OD after mutation/OD wild type) (CTLA-4 [3]): 70 to 90%
B18: anti-CTLA-4 antibody heavy chain Y107C (antibody, human IgG1, kappa, V domains shown)
VH: B10 VH with C54D, Y107C
VL: not shown
